From US20220396632A1 (VERSEAU THERAPEUTICS, published 2022)

T1: Biotin sY51 PSGL-1(42-62) peptide (human, sulfotyrosine at Y51; C-terminal Lys-biotin)
T1 construct: also called Y51(SO3) PSGL-1(42-62)
T1 peptide: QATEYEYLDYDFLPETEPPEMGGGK

T2: Biotin Y46,48,51(SO3) PSGL-1(42-62) peptide (human, sulfotyrosine at Y46, Y48 and Y51; C-terminal Lys-biotin)
T2 construct: also called fully sulfated N-terminal PSGL-1 peptide
T2 peptide: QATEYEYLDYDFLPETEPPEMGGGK

T3: Biotin sY46 PSGL-1(42-62) peptide (human, sulfotyrosine at Y46; C-terminal Lys-biotin)
T3 peptide: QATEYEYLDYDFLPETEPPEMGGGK

T4: Biotin sY48 PSGL-1(42-62) peptide (human, sulfotyrosine at Y48; C-terminal Lys-biotin)
T4 construct: also called sY48S
T4 peptide: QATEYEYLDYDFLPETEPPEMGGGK

B1: 20I15 (antibody, V domains shown)
VH: EVKLVESGGGLVQPGGSLSLSCAASGFTFTDYYMSWVRQPPGKALEWLGFIRNKANGYTTEYSASVKGRFTISRDNSQSILYLQMNALRAEDSATYYCARTYLRRGYFDVWGTGTTVTVSS
VL: DIVLTQSPASLAVSLGQRATISCRASKSVSTSGYSYMHWFQQKPGQPPKLLIYLASNLESGVPARFSGSGSGTDFTLNIHPVEEEDAATYYCQHSRELPLTFGAGTKLELK
notes: From mouse immunisation; only variable domains given; also called 20115
B2: 10F01 (antibody, IgG4, V domains shown)
VH: EVQLVQSGGGLVQPGGSLRLSCAASGFTFSSYAMSWVRQAPGKGLEWVSALRGGDGGTYHADSVKGRFTISGDSSKNTLYLQMNSLRAEDTAVYYCARRMVGAAYAFDIWGQGTMVTVSS
VL: LPVLTQPHSVSESPGKTVTISCTRSSGSIADNFVQWYRQRPGSAPTTVIYEGDQRPSGVPGRFSGSIDSSSNSASLTISGLQTDDEADYYCQSFDSYNRRTHVVFGGGTKLTVL

How the values were obtained:
[1] = molecular target: T1, Biotin sY51 PSGL-1(42-62) peptide; test: capture ELISA; against 3 x sY peptide
Protocol: (§1) Two ELISA methods were performed. One procedure detected mAb binding to its plate-immobilized target and the other measured the immobilized antibody's ability to capture biotinylated PSGL-1₄₂₋₆₂. […] The plate was incubated for 45 min at 37° C. Plates were washed 3 times with wash buffer (PBS containing 0.05% tween 20, pH 7.4) and a single concentration (2 to 500 nM) or serially diluted (0.002-100 nM) anti-PSGL-1 mAb was added (25 ul/well) in assay buffer into appropriate wells. The plate was incubated for 45 min at 37° C., washed 3 times, and an appropriate HRP-conjugated secondary antibody added (25 ul/well) (HRP goat anti-mouse or anti-human IgG). After 45 min incubation at 37° C., the plate was washed, and antibody bound to plate-immobilized target was determined at A450 nm using HRP substrate (3,3′,5,5′-etramethylbenzidine (TMB)). For each antibody, duplicate values were averaged and assay background was subtracted. Except for the following, ELISAs involving plate-immobilized mAb capturing of biotinylated PSGL-1₄₂₋₆₂ peptides was performed in the same manner as described above: 3 ug/mL/25 ul per well of mAb was coated directly onto microtiter plate wells; biotinylated unmodified or sulfotyrosine PSGL-1₄₂₋₆₂ was serially diluted (3 nM-3 uM) into appropriate wells, and antibody-bound peptide was detected using HRP-streptavidin (Jackson Immunoresearch, Cat. #016-030-084).

[2] = molecular target: T2, Biotin Y46,48,51(SO3) PSGL-1(42-62) …; test: capture ELISA; against 3 x sY peptide
Protocol: as §1

[3] = molecular target: T3, Biotin sY46 PSGL-1(42-62) peptide; test: capture ELISA; against 3 x sY peptide
Protocol: as §1

[4] = molecular target: T4, Biotin sY48 PSGL-1(42-62) peptide; test: capture ELISA; against 3 x sY peptide
Protocol: as §1

[5] = molecular target: T5, Human complement C4 protein (Millipore Sigma, Cat. 204886) (human, UniProt P0C0L4 20-675; P0C0L4 680-1446; P0C0L4 1454-1744, limits assumed, natural sulfotyrosines); test: ELISA, 50 nM mAb on plate-bound protein
T5 construct: mature
Protocol: Recombinant PSGL-1-hFc1 chimera protein consisting of PSGL-1's extracellular domain (ECD) served as a positive control. […] Primary antibody was added (25 ul per well) in duplicate at 50 nM in assay buffer (blocking buffer containing 0.05% Tween®20) into test and control (just blocked) wells and the plate incubated for 45 min at 37° C.

T5 sequence (P0C0L4 20-675 limits assumed, form in doubt, chain 1 of 3): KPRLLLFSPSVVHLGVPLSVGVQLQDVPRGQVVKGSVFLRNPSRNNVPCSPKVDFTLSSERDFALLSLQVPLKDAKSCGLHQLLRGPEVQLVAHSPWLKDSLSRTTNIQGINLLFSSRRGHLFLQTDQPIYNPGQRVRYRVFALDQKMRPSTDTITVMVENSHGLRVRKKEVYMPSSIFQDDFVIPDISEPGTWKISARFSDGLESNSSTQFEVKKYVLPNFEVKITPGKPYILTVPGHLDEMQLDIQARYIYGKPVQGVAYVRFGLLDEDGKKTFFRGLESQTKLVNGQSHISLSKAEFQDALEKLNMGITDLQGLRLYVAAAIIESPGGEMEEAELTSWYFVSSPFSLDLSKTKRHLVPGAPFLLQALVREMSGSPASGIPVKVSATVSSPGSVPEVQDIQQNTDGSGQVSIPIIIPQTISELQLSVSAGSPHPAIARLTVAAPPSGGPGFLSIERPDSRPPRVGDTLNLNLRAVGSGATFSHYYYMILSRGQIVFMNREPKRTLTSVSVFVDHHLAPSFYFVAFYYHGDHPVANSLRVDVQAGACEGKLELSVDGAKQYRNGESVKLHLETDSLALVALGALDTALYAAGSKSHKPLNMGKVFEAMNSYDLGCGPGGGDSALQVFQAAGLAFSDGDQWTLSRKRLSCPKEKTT
T5 sequence (P0C0L4 680-1446 limits assumed, form in doubt, chain 2 of 3): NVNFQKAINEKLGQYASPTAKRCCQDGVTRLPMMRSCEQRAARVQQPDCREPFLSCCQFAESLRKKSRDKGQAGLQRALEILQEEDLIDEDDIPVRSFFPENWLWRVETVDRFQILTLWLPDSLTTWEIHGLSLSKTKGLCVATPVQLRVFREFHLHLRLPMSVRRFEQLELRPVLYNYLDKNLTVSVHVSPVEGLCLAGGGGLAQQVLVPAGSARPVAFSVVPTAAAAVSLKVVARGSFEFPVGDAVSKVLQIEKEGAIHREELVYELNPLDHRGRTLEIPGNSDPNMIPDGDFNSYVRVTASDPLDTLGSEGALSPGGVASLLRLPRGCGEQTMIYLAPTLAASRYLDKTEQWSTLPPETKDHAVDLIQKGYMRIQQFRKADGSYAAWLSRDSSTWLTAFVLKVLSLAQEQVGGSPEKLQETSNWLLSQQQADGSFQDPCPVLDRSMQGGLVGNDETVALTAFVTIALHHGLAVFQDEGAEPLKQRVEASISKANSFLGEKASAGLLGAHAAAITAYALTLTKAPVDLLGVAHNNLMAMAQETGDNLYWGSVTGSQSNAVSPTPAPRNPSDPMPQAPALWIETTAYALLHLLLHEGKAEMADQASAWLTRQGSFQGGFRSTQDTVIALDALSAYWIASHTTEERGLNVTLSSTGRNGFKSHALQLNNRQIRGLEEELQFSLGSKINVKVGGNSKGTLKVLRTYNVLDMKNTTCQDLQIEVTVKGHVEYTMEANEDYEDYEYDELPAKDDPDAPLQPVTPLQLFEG
T5 sequence (P0C0L4 1454-1744 limits assumed, form in doubt, chain 3 of 3): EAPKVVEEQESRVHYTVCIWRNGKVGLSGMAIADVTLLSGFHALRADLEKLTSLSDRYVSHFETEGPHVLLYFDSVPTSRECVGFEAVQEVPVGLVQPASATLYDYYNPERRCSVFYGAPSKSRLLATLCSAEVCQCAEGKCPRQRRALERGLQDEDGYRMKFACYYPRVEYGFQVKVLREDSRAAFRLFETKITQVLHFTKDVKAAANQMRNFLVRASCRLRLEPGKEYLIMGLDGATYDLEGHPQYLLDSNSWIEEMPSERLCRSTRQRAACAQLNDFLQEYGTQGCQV

Binder | EC50/EC50 3x(SO3)Y [1] [fold] | EC50/EC50 3x(SO3)Y [2] [fold] | EC50/EC50 3x(SO3)Y [3] [fold] | EC50/EC50 3x(SO3)Y [4] [fold] | % of binding to PSGL-1(ECD)-hFc1 [5] [%]
B1 | ~10 | 1 | ~10 | ~10 | –
B2 | ~36 | 1 | ~2000 | ~2000 | ≤ 10
